Results from patent US20020143164A1 (published 2002).

Target: Endogenous Ras of HEK-293T cells (human (endogenous in HEK-293T cells))
Test: cell-based or functional assay

enhancement of Ras activation in cells after 8-Br-cAMP (GST-Raf1-RBD precipitation): 3.9 fold
enhancement of Ras activation in cells after 8-Br-cAMP plus H-89 (GST-Raf1-RBD precipitation): 3.5 fold
B1: Flag-tagged full-length GRF4 (enzyme, not shown: small tags and cut ends)
chain: MKPLAIPANHGVMGQQEKHSLPADFTKLHLTDSLHPQVTHVSSSHSGCSITSDSGSSSLSDIYQATESEAGDMDLSGLPETAVDSEDDDDEEDIERASDPLMSRDIVRDCLEKDPIDRTDDDIEQLLEFMHQLPAFANMTMSVRRELCAVMVFAVVERAGTIVLNDGEELDSWSVILNGSVEVTYPDGKAEILCMGNSFGVSPTMDKEYMKGVMRTKVDDCQFVCIAQQDYCRILNQVEKNMQKVEEEGEIVMVKEHRELDRTGTRKGHIVIKGTSERLTMHLVEEHSVVDPTFIEDFLLTYRTFLSSPMEVGKKLLEWFNDPSLRDKVTRVVLLWVNNHFNDFEGDPAMTRFLEEFENNLEREKMGGHLRLLNIACAAKAKRRLMTLTKPSREAPLPFILLGGSEKGFGIFVDSVDSGSKATEAGLKRGDQILEVNGQNFENIQLSKAMEILRNNTHLSITVKTNLFVFKELLTRLSEEKRNGAPHLPKIGDIKKASRYSIPDLAVDVEQVIGLEKVNKKSKANTVGGRNKLKKILDKTRISILPQKPYNDIGIGQSQDDSIVGLRQTKHIPTALPVSGTLSSSNPDLLQSHHRILDFSATPDLPDQVLRVFKADQQSRYIMISKDTTAKEVVIQAIREFAVTATPDQYSLCEVSVTPEGVIKQRRLPDQLSKLADRIQLSGRYYLKNNMETETLCSDEDAQELLRESQISLLQLSTVEVATQLSMRNFELFRNIEPTEYIDDLFKLRSKTSCANLKRFEEVINQETFWVASEILRETNQLKRMKIIKHFIKIALHCRECKNFNSMFAIISGLNLAPVARLRTTWEKLPNKYEKLFQDLQDLFDPSRNMAKYRNVLNSQNLQPPIIPLFPVIKKDLTFLHEGNDSKVDGLVNFEKLRMIAKEIRHVGRMASVNMDPALMFRTRKKKWRSLGSLSQGSTNATVLDVAQTGGHKKRVRRSSFLNAKKLYEDAQMARKVKQYLSNLELEMDEESLQTLSLQCEPATNTLPKNPGDKKPVKSETSPVAPRAGSQQKAQSLPQPQQQPPPAHKINQGLQVPAVSLYPSRKKVPVKDLPPFGINSPQALKKILSLSEEGSLERHKKQAEDTISNASSQLSSPPTSPQSSPRKGYTLAPSGTVDNFSDSGHSEISSRSSIVSNSSFDSVPVSLHDERRQRHSVSIVETNLGMGRMERRTMIEPDQYSLGSYAPMSEGRGLYATATVISSPSTEELSQDQGDRASLDAADSGRGSWTSCSSGSHDNIQTIQHQRSWETLPFGHTHFDYSGDPAGLWASSSHMDQIMFSDHSTKYNRQNQSRESLEQAQSRASWASSTGYWGEDSEGDTGTIKRRGGKDVSIEAESSSLTSVTTEETKPVPMPAHIAVASSTTKGLIARKEGRYREPPPTPPGYIGIPITDFPEGHSHPARKPPDYNVALQRSRMVARSSDTAGPSSVQQPHGHPTSSRPVNKPQWHKPNESDPRLAPYQSQGFSTEEDEDEQVSAV
